# Data: the supplement of paper PMC10598134
# ± gives the standard deviation.
# Experiment: collision cross section of modified peptide (TIMS, N2, iRT-aligned); higher = larger / more extended gas-phase ion
# How it was run: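 Synthetic peptide pools (~100 fmol/µL in 2% acetonitrile/0.1% formic acid, iRT standard spiked 1:40) were separated on a 120-min nanoflow C18 gradient at 60 °C. They were analysed on a timsTOF Pro/HT (dda-PASEF, nitrogen, ~2.4 mbar) and identified with MaxQuant. 1/K0 was calibrated with three reference ions and aligned run-wise to the median iRT peptide deviation. Collision cross section came from the Mason-Schamp equation, averaging 1–3 technical replicates of the most abundant feature per charge state.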
# [1] = charge state: 2, modification: Dimethyl (K)
# [2] = charge state: 3, modification: Dimethyl (K)
# [3] = charge state: 2, modification: Nitro (Y)
# [4] = charge state: 3, modification: Nitro (Y)
# [5] = charge state: 3, modification: Glutarylation
# [6] = charge state: 2, modification: Succinyl
# [7] = charge state: 3, modification: Succinyl
# [8] = charge state: 2, modification: Biotin
# [9] = charge state: 3, modification: Biotin
# [10] = charge state: 2, modification: Hydroxyproline
# [11] = charge state: 2, modification: Formyl
# [12] = charge state: 3, modification: Hydroxyproline
# [13] = charge state: 2, modification: Acetyl (K)
# [14] = charge state: 2, modification: Glutarylation
# [15] = charge state: 2, modification: Crotonyl
# [16] = charge state: 2, modification: HexNAc (ST)
substance,measurement,setting,value
STGLELETPSLVPVKK [_STGLELETPSLVPVK(Dimethyl (K))K_],collision cross section,[1],456.56 ± 2.3 Å²
same,collision cross section,[2],515.08 ± 1.7 Å²
AYDATHLVK [_AY(Nitro (Y))DATHLVK_],collision cross section,[3],358.23 ± 0.55 Å²
same,collision cross section,[4],417.35 Å²
ISALQGKLSK [_ISALQGK(Dimethyl (K))LSK_],collision cross section,[1],355.29 ± 0.29 Å²
same,collision cross section,[2],425.26 ± 1.1 Å²
TFGKAAGPSLSHTSGGTQSK [_TFGK(Gluratylation)AAGPSLSHTSGGTQSK_],collision cross section,[5],518.15 ± 2 Å²
INNFSADIKDSK [_INNFSADIK(Succinyl)DSK_],collision cross section,[6],402.07 ± 0.25 Å²
same,collision cross section,[7],465.51 Å²
PASGAGAGAGAGKR [_PASGAGAGAGAGK(Biotin)R_],collision cross section,[8],377.47 Å²
same,collision cross section,[9],490.64 Å²
GLPGPPGPQGESR [_GLP(Hydroxyproline)GPPGPQGESR_],collision cross section,[10],363.77 ± 1.6 Å²
ITGKNQVTATK [_ITGK(Formyl)NQVTATK_],collision cross section,[11],360.79 ± 0.79 Å²
SDSGKPYYYNSQTK [_SDSGK(Formyl)PYYYNSQTK_],collision cross section,[11],417.77 ± 0.18 Å²
APEYLHR [_APEY(Phospho (Y))LHR_],collision cross section,"charge state: 2, modification: Phospho (Y)",334.14 ± 1.5 Å²
LEKTIDDLEEK [_LEK(Methyl (K))TIDDLEEK_],collision cross section,"charge state: 2, modification: Methyl (K)",405.66 ± 1.3 Å²
same,collision cross section,"charge state: 3, modification: Methyl (K)",473.34 ± 3.6 Å²
LGVPGLPGYPGRQGPK [_LGVPGLP(Hydroxyproline)GYPGRQGPK_],collision cross section,[10],416.79 ± 1.1 Å²
same,collision cross section,[12],499.55 ± 1.2 Å²
ITASLCDLKSR [_ITASLCDLK(Acetyl (K))SR_],collision cross section,[13],383.24 ± 1.3 Å²
IVEKYGYTHLSAGELLR [_IVEK(Gluratylation)YGYTHLSAGELLR_],collision cross section,[5],567.6 ± 0.21 Å²
PSVSTKLISK [_PSVSTK(Gluratylation)LISK_],collision cross section,[14],361.01 ± 0.71 Å²
SLFFGGKGAPLQR [_SLFFGGK(Biotin)GAPLQR_],collision cross section,[8],419.13 Å²
LGPPGNPGPSGSPGPKGQK [_LGPPGNP(Hydroxyproline)GPSGSPGPKGQK_],collision cross section,[12],472.87 ± 1.2 Å²
VFIGNLNTLVVKKK [_VFIGNLNTLVVK(Formyl)KK_],collision cross section,"charge state: 3, modification: Formyl",499.94 Å²
VNALKNLQVK [_VNALK(Succinyl)NLQVK_],collision cross section,[6],370.5 ± 1.8 Å²
PRGVISTPVIR [_PR(Methyl (R))GVISTPVIR_],collision cross section,"charge state: 2, modification: Methyl (R)",373.92 Å²
same,collision cross section,"charge state: 3, modification: Methyl (R)",447.15 ± 2.7 Å²
STGLELETPSLVPVKK [_STGLELETPSLVPVK(Propionyl)K_],collision cross section,"charge state: 2, modification: Propionyl",435.15 Å²
YEATSVQQK [_Y(Nitro (Y))EATSVQQK_],collision cross section,[3],342.71 ± 0.55 Å²
LQNSYQPTNK [_LQNSY(Nitro (Y))QPTNK_],collision cross section,[3],362.69 ± 0.94 Å²
LDEKENLSAK [_LDEK(Crotonyl)ENLSAK_],collision cross section,[15],370.68 ± 0.26 Å²
DYSAPVNFISAGLKK [_DYSAPVNFISAGLK(Biotin)K_],collision cross section,[8],458.59 ± 0.47 Å²
same,collision cross section,[9],548.62 Å²
IYHPNVDK [_IY(Nitro (Y))HPNVDK_],collision cross section,[3],340.06 ± 0.72 Å²
same,collision cross section,[4],427.49 ± 0.064 Å²
IGNSYFKEEK [_IGNSYFK(Formyl)EEK_],collision cross section,[11],368.62 ± 0.55 Å²
DSSPTTNSKLSALQR [_DSSPTTNSK(Gluratylation)LSALQR_],collision cross section,[14],431.44 ± 1.5 Å²
same,collision cross section,[5],500.2 ± 1 Å²
IVNVSLADLR [_IVNVS(HexNAc (ST))LADLR_],collision cross section,[16],388.29 ± 1.2 Å²
SITHSTVGSKGEK [_SITHSTVGSK(Crotonyl)GEK_],collision cross section,[15],402.71 ± 8.6 Å²
same,collision cross section,"charge state: 3, modification: Crotonyl",442.34 ± 1.6 Å²
FDDTNPEKEEAK [_FDDTNPEK(Succinyl)EEAK_],collision cross section,[6],397.2 ± 0.56 Å²
same,collision cross section,[7],438.25 ± 3.4 Å²
GEVQVSDKER [_GEVQVSDK(Acetyl (K))ER_],collision cross section,[13],356.44 ± 0.96 Å²
ITESVAETAQTIKK [_ITESVAET(HexNAc (ST))AQTIKK_],collision cross section,[16],456.71 ± 0.56 Å²
same,collision cross section,"charge state: 3, modification: HexNAc (ST)",499.78 ± 0.18 Å²
SKHLQEQLNELK [_SK(Acetyl (K))HLQEQLNELK_],collision cross section,[13],415.42 ± 1.7 Å²
same,collision cross section,"charge state: 3, modification: Acetyl (K)",483.11 ± 1.6 Å²
LSITGTYDLK [_LSITGTY(Nitro (Y))DLK_],collision cross section,[3],368.48 ± 0.22 Å²
DDSFLGKLGGTLAR [_DDSFLGK(Formyl)LGGTLAR_],collision cross section,[11],408.49 ± 1.1 Å²
